Assay [1] concerns the target Human pancreatic trypsin (Athens Research & Technology, Inc) (human) (UniProt P07477). In words: cell-based or functional assay.
Assay [2] deals with trypsin (Examples 7 and 8, source not stated). In words: cell-based or functional assay.

In assay [1], “human UTI (human urine UTI) (from UniProt P02760 206-352)” showed an IC50 of trypsin inhibition (fluorogenic substrate, enzyme activity) of 3 nM. The IC50 of inhibition of trypsin-induced IL-6 production in BEAS2B cells in assay [2] amounted to 0.4 µg/mL.

Source of the values: US20220127334A1.
